This note sets out measurements from article PMC8789049, “Regulation of AR mRNA translation in response to acute AR pathway inhibition”.

One data set addresses T1, YTHDF3 (UniProt Q7Z739 1-585).
T1 sequence: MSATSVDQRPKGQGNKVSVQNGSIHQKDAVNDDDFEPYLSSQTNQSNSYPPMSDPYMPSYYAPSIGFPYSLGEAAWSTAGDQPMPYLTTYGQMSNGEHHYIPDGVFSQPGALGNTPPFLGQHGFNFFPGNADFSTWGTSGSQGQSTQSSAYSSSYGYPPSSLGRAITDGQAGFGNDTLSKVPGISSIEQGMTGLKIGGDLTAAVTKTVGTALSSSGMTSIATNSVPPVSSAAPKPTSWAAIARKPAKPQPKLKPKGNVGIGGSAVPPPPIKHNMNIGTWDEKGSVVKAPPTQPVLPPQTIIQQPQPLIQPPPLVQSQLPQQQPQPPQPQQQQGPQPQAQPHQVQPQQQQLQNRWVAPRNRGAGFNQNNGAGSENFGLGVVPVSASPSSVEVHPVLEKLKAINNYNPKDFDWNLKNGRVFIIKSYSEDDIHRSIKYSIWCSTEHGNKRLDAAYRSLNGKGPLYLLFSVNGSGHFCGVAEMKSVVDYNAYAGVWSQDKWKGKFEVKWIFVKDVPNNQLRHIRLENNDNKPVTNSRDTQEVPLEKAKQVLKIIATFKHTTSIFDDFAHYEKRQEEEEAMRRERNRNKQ
Nature of the data set: EMSA; REMSA: 6.25 nM biotin probe, 100 mM HEPES pH 7.3, 200 mM KCl, 10 mM MgCl2, 10 mM DTT, 5% glycerol, 2 ug tRNA, 20 ul, 30 min, temperature not stated; 6% native PAGE in 0.5x TBE. The conditions noted are these: protein: recombinant; tags: His-tag (pET-28a(+)-TEV); label: biotin.

The target in the next data set is G3BP1 (UniProt Q13283 1-466). Described as above. The conditions noted are these: protein: recombinant; tags: His-tag (pET-28a(+)-TEV); chain copies: 2; label: biotin.
G3BP1, sequence (Q13283 whole entry): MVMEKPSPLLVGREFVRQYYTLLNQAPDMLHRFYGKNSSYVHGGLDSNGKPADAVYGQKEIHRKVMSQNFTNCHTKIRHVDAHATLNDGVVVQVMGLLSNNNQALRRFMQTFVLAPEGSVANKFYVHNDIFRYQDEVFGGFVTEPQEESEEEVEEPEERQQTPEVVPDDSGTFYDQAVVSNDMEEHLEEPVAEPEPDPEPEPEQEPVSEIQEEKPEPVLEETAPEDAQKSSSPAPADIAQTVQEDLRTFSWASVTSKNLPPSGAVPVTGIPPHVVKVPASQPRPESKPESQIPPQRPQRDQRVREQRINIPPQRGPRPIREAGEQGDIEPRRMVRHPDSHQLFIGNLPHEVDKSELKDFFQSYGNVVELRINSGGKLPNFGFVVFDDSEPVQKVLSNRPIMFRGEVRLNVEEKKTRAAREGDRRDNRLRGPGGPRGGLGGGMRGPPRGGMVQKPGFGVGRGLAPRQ

Consider AACUCAAUGGAACUGACUGAGAUUUACCAC (ssRNA) [8953-UM], for which the values for the binding result with YTHDF3 and with G3BP1 were “no binding” and “binds”, respectively.

As for AACUCAAUGGAACUGACUGAGAUUUACCAC (ssRNA, m6A in GAm6ACU) [8953-m6A], in the data set with YTHDF3, the binding result is given as “binds”.

For GGAUAUUUUGAAGGACUGUCAUAUAUCUUU (ssRNA, m6A in GGm6ACU) [7301-m6A], the binding result in the data set with YTHDF3 is reported as “binds”.

Consider CCUGUGAGGGACUGGCCACUCAGACCCACU (ssRNA) [6908-UM], for which the binding result with YTHDF3 is listed as “no binding”; with G3BP1 it was “binds”.

Take CCUGUGAGGGACUGGCCACUCAGACCCACU (ssRNA, m6A in GGm6ACU) [6908-m6A]: the binding result in the data set with YTHDF3 is reported as “binds”.

As to GGAUAUUUUGAAGGACUGUCAUAUAUCUUU (ssRNA) [7301-UM], the binding result with YTHDF3 is “no binding”; in the data set with G3BP1 it was “binds”.
